Measured values: patent publication US20160010082A1 (University of California, published 2016)
Changes are numbered by the printed parent chain.

T1: biotinylated C-reactive protein (UniProt P02741 19-224, biotinylated)
T1 construct: also called CRP; biotinylated CRP
T1 sequence (looked up): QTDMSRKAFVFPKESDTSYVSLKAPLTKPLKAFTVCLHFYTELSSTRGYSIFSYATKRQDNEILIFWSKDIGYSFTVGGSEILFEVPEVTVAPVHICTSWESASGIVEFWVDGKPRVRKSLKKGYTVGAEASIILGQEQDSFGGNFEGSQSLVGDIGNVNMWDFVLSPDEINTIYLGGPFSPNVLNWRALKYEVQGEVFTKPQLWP

B1: CPX-L2-1 (enhanced CPX, eCPX) displaying SApep at the N-terminus (other)
chain: GQSGQAECHPQGPPCIEGRKGGQSGQSGDYNKNQYYGITAGPAYRINDWASIYGVVGVGYGKFQTTEYPTYKHDTSDYGFSYGAGLQFNPMENVALDFSYEQSRIRSVDVGTWILSVGYRFGSKSRRATSTVTGGYAQSDAQGQMNKMGGFNLKYRYEEDNSPLGVIGSFTYTEKSRTAS
notes: also called eCPX-nSApep
B2: CPX-L2-10 displaying SApep at the N-terminus (other)
chain: GQSGQAECHPQGPPCIEGRKGGQSGQSGDYNKNQYYGITAGPAYRINDWASIYGVVGVGYGKFQTTEYPTYKHDTSDYGFSYGAGLQFNPMENVALDFSYEQSRIRSVDVGTWIISVGYRFHRGYHAQRATSTVTGGYAQSDAQGQMNKMGGFNLKYRYEEDNSPLGVIGSFTYTEKSRTAS
B3: CPX with the streptavidin binding peptide fused to the N-terminus (pB33CPX-SApep) (other)
chain: GQSGQAECHPQGPPCIEGRKGGQSGQSGDYNKNQYYGITAGPAYRINDWASIYGVVGVGYGKFQTTEYPTYKHDTSDYGFSYGAGLQFNPMENVALDFSYEQSRIRSVDVGTWIAGVGYRFGGSGATSTVTGGYAQSDAQGQMNKMGGFNLKYRYEEDNSPLGVIGSFTYTEKSRTAS
notes: also called parent CPX scaffold
B4: CPX-L2-3 displaying SApep at the N-terminus (other)
chain: B1 chain with L115I, S123T, K124R, S125G, R126S, R127Q
B5: CPX-L2-2 displaying SApep at the N-terminus (other)
chain: B1 chain with L115F, S123R, S125N, R126S, R127H
B6: CPX-L2-7 displaying SApep at the N-terminus (other)
chain: B1 chain with L115V, S123T, K124H, S125N, R126S, R127Q
B7: CPX-L2-9 displaying SApep at the N-terminus (other)
chain: B1 chain with L115I, S123P, K124H, S125N, R126S
B8: CPX-L2-8 displaying SApep at the N-terminus (other)
chain: B1 chain with L115V, S123P, K124N, S125K, R126S
B9: CPX-L2-5 displaying SApep at the N-terminus (other)
chain: B1 chain with L115I, S123D, K124R, S125K
B10: CPX-L2-6 displaying SApep at the N-terminus (other)
chain: B1 chain with L115V, S116A, S123A, K124R, S125G, R127H
B11: CPX-L2-4 displaying SApep at the N-terminus (other)
chain: B1 chain with S123H, K124R, R126H
B12: CPX-5X-1 displaying SApep at the N-terminus (other)
chain: GQSGQAECHPQGPPCIEGRKGGQSGQSGDYNKNQYYGITAGPAYRINDWASIYGVVGVGYGKFQTTEYPTYKHDTSDYGFSYGAGLQFNPMENVALDFSYEQSRIRSVDVGTWIAGVGYRFGRTRKATSTVTGGYAQSDAQGQMNKMGGFNLKYRYEEDNSPLGVIGSFTYTEKSRTAS
B13: CPX-5X-3 displaying SApep at the N-terminus (other)
chain: B12 chain with A115V, R123A, K126R
B14: CPX-5X-4 displaying SApep at the N-terminus (other)
chain: B12 chain with G116S, R123S, T124Q, R125S
B15: CPX-5X-2 displaying SApep at the N-terminus (other)
chain: B12 chain with T124K, K126N
B16: CPX-4X-1 displaying SApep at the N-terminus (other)
chain: B3 chain with G123S, S124K, G125R
B17: CPX-4X-4 displaying SApep at the N-terminus (other)
chain: B3 chain with A115V, G122P, G123R, S124K, G125S
B18: CPX-4X-2 displaying SApep at the N-terminus (other)
chain: B3 chain with G123R, S124Q, G125K
B19: CPX-4X-3 displaying SApep at the N-terminus (other)
chain: B3 chain with G122S, G123W, S124P, G125N
B20: CPX-6X-2 displaying SApep at the N-terminus (other)
chain: B1 chain with L115A, S116G, S123R, K124R, S125H, R126Y, R127K
B21: CPX-6X-3 displaying SApep at the N-terminus (other)
chain: B1 chain with L115A, S116G, S123N, K124R, S125R, R126H
B22: CPX-6X-1 displaying SApep at the N-terminus (other)
chain: B1 chain with L115A, S116G, S123T, S125R, R126Y, R127H
B23: CPX-6X-4 displaying SApep at the N-terminus (other)
chain: B1 chain with L115A, S125Q, R126S, R127K
B24: CPX-3X-3 displaying SApep at the N-terminus (other)
chain: GQSGQAECHPQGPPCIEGRKGGQSGQSGDYNKNQYYGITAGPAYRINDWASIYGVVGVGYGKFQTTEYPTYKHDTSDYGFSYGAGLQFNPMENVALDFSYEQSRIRSVDVGTWIAGVGYRFGTKATSTVTGGYAQSDAQGQMNKMGGFNLKYRYEEDNSPLGVIGSFTYTEKSRTAS
B25: CPX-3X-4 displaying SApep at the N-terminus (other)
chain: B24 chain with T123K
B26: eCPX displaying the VEGF binding peptide at the N-terminus (other)
chain: GQSGQVEPNCDIHVMWEWECFERLGGQSGQSGDYNKNQYYGITAGPAYRINDWASIYGVVGVGYGKFQTTEYPTYKHDTSDYGFSYGAGLQFNPMENVALDFSYEQSRIRSVDVGTWILSVGYRFGSKSRRATSTVTGGYAQSDAQGQMNKMGGFNLKYRYEEDNSPLGVIGSFTYTEKSRTAS
notes: Disulfide-constrained 19-mer; also called V114
B27: eCPX displaying the CRP binding peptide (CRPpep) at the N-terminus (other)
chain: GQSGQEWACNDRGFNCQLQRGGQSGQSGDYNKNQYYGITAGPAYRINDWASIYGVVGVGYGKFQTTEYPTYKHDTSDYGFSYGAGLQFNPMENVALDFSYEQSRIRSVDVGTWILSVGYRFGSKSRRATSTVTGGYAQSDAQGQMNKMGGFNLKYRYEEDNSPLGVIGSFTYTEKSRTAS
notes: Disulfide-constrained peptide; also called CRP-1

biological target: T2, streptavidin-R-phycoerythrin (UniProt P22629 37-163, limits assumed); assay: flow cytometry of E. coli displaying the construct, 100 nM SA-PE; 30 minutes of expression
T2 construct: Bought conjugate; also called SA-PE; fluorescently-conjugated streptavidin probe
T2 sequence (P22629 37-163 limits assumed): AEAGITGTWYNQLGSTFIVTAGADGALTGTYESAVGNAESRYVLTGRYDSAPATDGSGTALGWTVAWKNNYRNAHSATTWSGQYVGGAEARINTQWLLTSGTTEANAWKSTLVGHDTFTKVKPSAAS
Procedure: To compare the display level of CPX and eCPX as a function of time of CPX and eCPX, cells were subcultured 1:50 from overnight stocks into 5 mL LB Cm and grown for 2 hours shaking (250 rpm) at 37° C. The cells were then moved to room temperature (22° C.) to equilibrate and induced with 0.04% (w/v) L-arabinose still shaking at 250 rpm. Five μL samples were taken prior to induction, 30, 60, and 90 minutes after induction then added to 50 μL of 100 nM SA-PE in PBS and incubated on ice for 45 minutes. After which the cells were centrifuged (3000 g, 5 min), supernatant removed, and resuspended in 500 μL ice cold PBS. Cells were immediately analyzed with a […] using 488 nm excitation and collected fluorescence data at 576 nm.
The cell surface display level of SApep was measured at incremental times after induction of expression for these three scaffolds. […] The level of display was measured before and after 30, 60, and 90 minutes of induction using flow cytometry (FIG. 1). […] After only 30 minutes of expression, the level of display of eCPX-nSApep was 50-fold above background autofluorescence.

Row | Binder | level of display (fold above background autofluorescence) [fold above background]
1 | B1 | 50

biological target: T2, streptavidin-R-phycoerythrin; assay: flow cytometry of E. coli displaying the construct, 100 nM SA-PE; 25 minutes of expression

Row | Binder | Relative Display level (fold fluorescence above background) [fold above background]
2 | B2 | 33
3 | B3 | 1.5
4 | B4 | 29
5 | B5 | 19
6 | B6 | 26
7 | B1 | 33
8 | B7 | 23
9 | B8 | 17
10 | B9 | 28
11 | B10 | 24
12 | B11 | 27

biological target: T2, streptavidin-R-phycoerythrin; assay: flow cytometry of E. coli displaying the construct, 100 nM SA-PE; 50 minutes of expression

Row | Binder | Relative Display level (fold fluorescence above background) [fold above background]
13 | B12 | 24
14 | B13 | 32
15 | B14 | 36
16 | B15 | 22
17 | B16 | 18
18 | B17 | 22
19 | B3 | 2.3
20 | B18 | 14
21 | B19 | 15
22 | B20 | 28
23 | B21 | 24
24 | B22 | 35
25 | B23 | 38
26 | B24 | 7.1
27 | B25 | 10

biological target: T3, biotinylated vascular endothelial growth factor (UniProt P15692-4 27-191, limits assumed); assay: flow cytometry of E. coli displaying the construct, 65 nM biotinylated VEGF then 10 nM SA-PE; reference CPX display
T3 construct: also called VEGF; biotinylated VEGF
T3 sequence (P15692 other isoform, or with tags, fused parts or gaps limits assumed): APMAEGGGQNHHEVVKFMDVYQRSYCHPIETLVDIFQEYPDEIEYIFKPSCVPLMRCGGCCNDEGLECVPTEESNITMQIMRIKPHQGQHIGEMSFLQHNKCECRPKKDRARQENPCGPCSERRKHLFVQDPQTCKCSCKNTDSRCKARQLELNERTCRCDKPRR

Row | Binder | fold more efficient display than CPX [fold]
28 | B26 | > 3

biological target: T1, biotinylated C-reactive protein; assay: flow cytometry of E. coli displaying the construct, 100 nM biotinylated CRP then 10 nM SA-PE; 30 minutes of expression; reference CPX display

Row | Binder | fold higher fluorescence labeling than for CPX [fold]
29 | B27 | ~50
